# Test results from the RNAGym collection of RNA variant scans (doi:10.1073/pnas.2313332121).
# B1: TPR t1 (parent)
# chain: GACCAAUCUGCCCUCAGAGCUCGAGAACAUCUUCGGAUGCAGAGGAGGCAGGCUUCGGUGGCGCGAUAGCGCCAACGUCCUCAACCUCCAAUGCAUCCCACCACAUGAUGAUGCCUGAAGAGCCUUGGUUUUUUG
# Variants of: B1
# Test: polymerase ribozyme fitness, log enrichment relative to wild type (log ratio); higher = more active; in vitro selection for triplet polymerase activity
# Method in brief: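 PCR was used to build mutant libraries for each subunit of a heterodimeric triplet polymerase ribozyme, which were then transcribed. A single in vitro selection round, in triplicate, used a frozen incubation at −7 °C and recovered extended constructs by gel excision, streptavidin beads and RT-PCR. Fitness is the logarithm of genotype enrichment relative to wild-type enrichment, averaged over replicates with inverse-variance weights. The logarithm is base 2, and after Illumina sequencing only genotypes with ≥10 input reads and ≥1 read per output were kept.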
row,Variant,polymerase ribozyme fitness (log ratio)
1,GCCCACUAUGCCCUCAGAGCUCGAGAACAUCUUCGGAUGCAGAGGAGGCAGGCUUCGGUGGCGCGAUAGCACCAACGUCCUCAUCCUCCAAUGCAUCCCACCACAUGAUGAUGCCUGAAGAGCCUUGGAUUUUUG [A2C A6C C8A G71A A84U U129A],-2.03
2,GCCCAAUCUGCCCUCAGAGCUCGAGAACAUCUUCGGAUGCAGAGGAGGCAGGCUUCGGUGGCGCGUUAGCGCCAACGUCCUCAACCUCCAAUGCAUCCCACCACAUGAUGAUGCCUGAAGAGCCUUGGUUUUUUG [A2C A66U],-2.86
3,GCCCAAUCUGCACUCAGAGCUCGAGAACAUCUUCGGAUGCAGAGGAGGCAGGCUUCGGUGGCGCGUUAGCGCCAACGUCCUCAACCUCCAAUGCAUCCCACCAUAUGAUGAUGCCUGAAGAGCCUUGGUUUUUUG [A2C C12A A66U C104U],-3.52
4,GCACAAUCAGCCCUCAGAGUUCGAGAACAUCUUCGGAUGCAGAGGAGGCAGGCUUCGGUGGCGCGAUAGCGCCAACGUCCUCAACCUCCAAUGCAUCCCACCACAUGAUGAUGCCUGAAUAGCCUUGGUUUUUUG [A2C C3A U9A C20U G120U],-0.418
5,GCCCAAUCUGACCUCAGAGCUCGAGAACAUCUUCGGAUGCAGAGGAGUCAGGCUUCGGUGGCGCGAUAGCGUCAACGUCUUCAACCUCCAAUGCAUCCCACCACAUGAUGAUGCCUGAAUAGCCUUGGUUUUUUG [A2C C11A G48U C72U C80U G120U],-3.83
6,GCCCAAUAUGCCCUCAGAGCUCGAGAACAUCUUCGGAUGCAGAGGAGGCAGGCUUCGGUGGCGCGAUAGCGCCAACGUCCUCAACCUCCAAUGCAUCCCACCACAUGAUGAUGCCUGAAGAGCCUUGGUUAUUUG [A2C C8A U131A],-1.54
7,GCCCAAUCUGCCCUCAGAGCUCGAGAACAUCUUCGGAUGCAGAGGCGGCAGGCUACGGUGGCGGGAUAGCGCCAACGUCCUCAUCCUCCAAUGCAUCCCACCACAUGAUGAUGCCUGAAGAGCCUUGGUUUUUUG [A2C A46C U55A C64G A84U],-7.2
8,GCCCAAUCUGCCCUCAGAGCUCGAGAACAUCUUCGGAUGCUGAGGAGGCAGGCUUCGGUGGCGCGAUAGCGCCAACGGCCUCAACCUCCAAUGCAUCCCACCACAUGAUGAUGCCUGAAGAGCCUUGGUUUUUUG [A2C A41U U78G],-3.61
9,GCCCAAUCUGCCGUCAGAGCUCGAGAACAUCUUCGAAUGCAGAGGAGGCAGGCUUCGGUGGCACGAUAGCGCCAACGUCCUCAACCUCCAAUGCAUCCCACCACAUGAUGAUGCCUGAAGAGCCUUGGUUUUUUG [A2C C13G G36A G63A],-5.73
10,GCCCUAUCUGCCCUCAGAGCUCGAGAACAUCUUCGGAUGCAGAGGAGGCAGUCUUCGGUGGAGCGAUAGCGCCAACGUCCUCAACCUCCAAUGCAUCCCACCACAUGAUGAUGCCUGAAGAGCCUUGGUUUUUUG [A2C A5U G52U C62A],-4.11
11,GCCUAAUCUGCCAUCAGAGCUCGAGAACAUCUUCGGAUGCAGAGGAGGAAGGCUUAGGUGGCGCGAUAGCACCAACGUCCUCAACCACCAAUGCAUCCCACCACAUGAUGAUGCCUGAAGAGCCUUGGUUUUUUG [A2C C4U C13A C49A C56A G71A U87A],-6.32
12,GCCCAAUAUGCCCUCAGAGCUCGAGAACAUCUUCGGAUGCACAGGAGGCAGGCAUCGGUGGCGCGAUAGCGCCAACGACCUCAACCUCCAAUGCAUCUCACCACAUGAUGAUGCCUGAAAAGCCUUCGUUUUUUG [A2C C8A G42C U54A U78A C98U G120A G127C],-2.04
13,GCCCAAUCUGCCCUCAGAGCUCGAGAACAUCUUCGGAUGCAGAGGAGGCAGGCUUCGGUGGCGCGAUAGCGCCAACGUCCUCAACCUCCAAUGCAUCCCACCACAUGAUGAUGCCUGAAGGGCCUUGGUUUUUUG [A2C A121G],0.405
14,GCCCAAUCUGCGCUCAGAGCUCGAGAACAUCUUCGGAUGCAGAGGCGGCAGGCUUCGGUGGCGCGAUAGCGUCAACGUCCUCAACCUCCAAUGCAUCCCACCACAUGAUGAUUCCUGAAGAGCCUUGGUUUUUUG [A2C C12G A46C C72U G113U],-7.24
15,GCCCAAUCUGCCCUCAGAGCUCGAGACCAUCUUCGGAUGCAGAGGAGGCAGGCUUCGGUGGCGCGAUAGCGCCAACGUCCUCAACCUCCAAUGCAUCCCACCACAUGAUGAUGCCUGAAGAGCCUUCGUUUUUUU [A2C A27C G127C G135U],-6.34
16,GCGCAAUCUGCCCUCAGAGCUCGAGAACAUCUUCGGAUGCAGAGGAGGCAGGCUUCGGUGGCGCGAUAGCGCCAACGUCCUCAACCUCCUAUGCAUCCCACCACAUGAUGAUGCUUGAAGAGCCUUGGUUUUUUG [A2C C3G A90U C115U],-3.68
17,GCACAAUCAGCCCUCAGAGUUCGAGAACAUCUUCGGAUGCAGAGGAGGCAGGCUUCGGUGGCCCGAUAGCGCCAACGUCCUCAACCUCCAAUGCAUCCCACCACAUGAUGAUGCCUGAAUAGCCUUGGUUUUUUG [A2C C3A U9A C20U G63C G120U],-1.07
18,GCCCAAUCUGCGCUCAGAGCUCGAGAACAUCUUCGGAUGCAUAGGAGGAAGGCUUCGGUGGCGCGAUAGCGCAAACGUCCUUAACCUCCAAUGCAUCCCACCACAUGAUGCUGCCUGAAGAGCCUUGGUUUUUUG [A2C C12G G42U C49A C73A C82U A111C],-5.3
19,GCCCCAUCUGCCCUCAGAGCUCGAGAACAUCUUCGGAUGCAGAGGAGGCAGGCUUCGGUGGCGCGAUAGCGCCAACGUCCUCAACCUCCAAUGCAUCCCACCACAUGAUGAUGGCUGAAGAGCAUUGGUUUUUUG [A2C A5C C114G C124A],-3.41
20,GCCCAAUCUGCGCUCAGAGCUCGAGAACAUCUUCGGAUGCAGAGGAGGCAGGCUUCGGUGGCGCGAUACCGCCAACGUCCUCAACCUCCAAUGCAUCCCACCACAUGAUUAUGCCUGAAGAGCCUUGCUUUUUUG [A2C C12G G69C G110U G128C],-5.29
21,GCCCAAUCUGUCCUCAGAGCUCGAGAACAUCUUCGGAUGCAGAGGAGGCAGGCUUCGGUGGCGCGAUAGGGCCAACGUCCUCAACCUCCAAUGCAUCCCACCACAUGAUGAUGCCUGAAAAGCCUUGGUUUUUUG [A2C C11U C70G G120A],-3.19
